Assay results: patent US20200268795A1, “INTERFERON-GAMMA ATTENUATES ANTI-TUMOR IMMUNE RESPONSE TO CHECKPOINT BLOCKADE” (The Regents of the University of California, priority 2017, published 2020)

Tests used:
[1] = test system: peripheral blood mononuclear cells from a melanoma patient; assay: Patient PBMC stimulated in vitro with IFN-γ, apoptosis of CD8+ T cells; type: cell-based, human; settings: different concentrations of IFN-γ; FIG. 5D
Text: It has been shown that T cell homeostasis can be achieved by down-modulation of antigen specific T cell receptor (TCR) signaling (A. M. Gallegos et al., Nature immunology 17, 379-386 (2016)). To investigate whether combination treatment eliminated different T cell clones depended on the strength of TCR binding to cognate cancer epitope, we gated on CD8 subsets and investigated Spas-1hi versus Spas-11o CD8+ T cell clones (FIG. 12C). […] Finally, peripheral blood mononuclear cells from a melanoma patient that received nivolumab immunotherapy were isolated and cultured in vitro with different concentrations of IFN-γ stimulation.
Splenocytes were harvested from TRAMP-C2 bearing C57BL/6j mice on day 50 and T cells were purified by magnetic beads according to the manufacturer's protocol (Miltenyi Biotec Cat 130-095-130). Cells were checked for over 90% purity. Purified T cells were suspend in DMEM (UCSF cell culture core) +10% fetal bovine serum (Lonza Cat 14-501F) +1% penicillin/streptomycin (UCSF cell culture core)+murine 20 IU IL-2 (Peprotech Cat 212-12), and seeded in 96 wells at 2×10^5 cells per well. Recombinant murine IFN-γ (Peprotech Cat 212-12) was added into the wells at indicated concentrations. Cells were cultured for 12-72 hours and analyzed by flow cytometry. […] Cells were harvested and analyzed by flow cytometry 72 hours after incubation.

[2] = test system: T cells purified from TRAMP-C2 tumor bearing mice; assay: In vitro T cell cultures stimulated with recombinant IFN-γ, active Caspase-3; type: cell-based; settings: 72 hours after IFN-γ stimulation; FIG. 5B
Experimental: We hypothesized that the loss of Spas-1 specific CD8+ T cells may be related to increased IFN-γ signaling. […] To further evaluate the effects of IFN-γ on antigen specific T cells, T cells were purified from spleens of tumor-bearing mice and stimulated with different concentrations of recombinant IFN-γ in vitro (FIG. 5A). 72 hours after the stimulation, the level of active Caspase-3 expression was examined among T cells subsets, including naïvee T cells (CD45+CD8+CD44-CD62L+), antigen specific T cells (CD45+CD8+Spas-1), and effector T cells (CD45+CD8+CD44+CD62L-). Activated effector T cells and antigen specific T cells were more susceptible to IFN-γ induced active Caspase-3 expression compared to naïvee T cells (FIG. 5B; 2297.33±305.84 versus 2281.67±305.89 versus 723±17.54; P<0.001).
Splenocytes were harvested from TRAMP-C2 bearing C57BL/6j mice on day 50 and T cells were purified by magnetic beads according to the manufacturer's protocol (Miltenyi Biotec Cat 130-095-130). Cells were checked for over 90% purity. Purified T cells were suspend in DMEM (UCSF cell culture core) +10% fetal bovine serum (Lonza Cat 14-501F) +1% penicillin/streptomycin (UCSF cell culture core)+murine 20 IU IL-2 (Peprotech Cat 212-12), and seeded in 96 wells at 2×10^5 cells per well. Recombinant murine IFN-γ (Peprotech Cat 212-12) was added into the wells at indicated concentrations. Cells were cultured for 12-72 hours and analyzed by flow cytometry. For the patient sample, peripheral blood mononuclear cells (PBMCs) were isolated by Ficoll (Sigma Cat F4375) and PBMCs were seeded in 96 wells at 2×10^5 cells per well supplemented with 20 IU human IL-2 (Peprotech Cat 200-02). Recombinant human IFN-γ (Peprotech Cat 212-12) was added to the wells. Cells were harvested and analyzed by flow cytometry 72 hours after incubation.
The flow cytometry protocols were previously described (Sckisel et al., 2015). […] Flow cytometry was performed on Fortessa X20 Dual, and data analyzed by FlowJo software (TreeStar). […]

IFN-γ: Recombinant human IFN-γ (Peprotech) added to patient PBMCs
apoptosis (Annexin V) in CD8+ T cells [1]: gradual increase in apoptosis

B1: recombinant IFN-γ: Recombinant murine IFN-γ (Peprotech) (protein, UniProt P01580 23-155, looked up)
Interferon gamma: HGTVIESLESLNNYFNSSGIDVEEKSLFLDIWRNWQKDGDMKILQSQIISFYLRLFEVLKDNQAISNNISVIESHLITTFFSNSKAKKDAFMSIAKFEVNNPQVQRQAFNELIRVVHQLLPESSLRKRKRSRC
active Caspase-3 expression, antigen specific T cells (CD45+CD8+Spas-1) [2]: 2281.67±305.89
active Caspase-3 expression, effector T cells (CD45+CD8+CD44+CD62L-) [2]: 2297.33±305.84
active Caspase-3 expression, naïve T cells (CD45+CD8+CD44-CD62L+) [2]: 723±17.54
